In this test the target is T1, recombinant full-length human CHD8 (human, UniProt Q9HCK8 1-2581).
T1 construct: CHD8, human, full length; no cleavage of the tag is described; also called full-length CHD8; full-length Chd8; source: Expi293F, transiently transfected, purified (StrepTactin XT 4-Flow resin)
In words: SPR; Biacore T200; CHD8 amine-coupled to a C1 chip (1585 RU), BSA-coupled reference cell; BCL11A injected 2.62-5737.5 nM (1:3 series), 600 s association, 300 s dissociation; 25 °C, HBS-P+ (10 mM HEPES, 150 mM NaCl, 0.05% Tween 20, pH 7.4); steady-state fit of responses at 600 s. The conditions noted are these: both partners purified.

T1 sequence (Q9HCK8 whole entry): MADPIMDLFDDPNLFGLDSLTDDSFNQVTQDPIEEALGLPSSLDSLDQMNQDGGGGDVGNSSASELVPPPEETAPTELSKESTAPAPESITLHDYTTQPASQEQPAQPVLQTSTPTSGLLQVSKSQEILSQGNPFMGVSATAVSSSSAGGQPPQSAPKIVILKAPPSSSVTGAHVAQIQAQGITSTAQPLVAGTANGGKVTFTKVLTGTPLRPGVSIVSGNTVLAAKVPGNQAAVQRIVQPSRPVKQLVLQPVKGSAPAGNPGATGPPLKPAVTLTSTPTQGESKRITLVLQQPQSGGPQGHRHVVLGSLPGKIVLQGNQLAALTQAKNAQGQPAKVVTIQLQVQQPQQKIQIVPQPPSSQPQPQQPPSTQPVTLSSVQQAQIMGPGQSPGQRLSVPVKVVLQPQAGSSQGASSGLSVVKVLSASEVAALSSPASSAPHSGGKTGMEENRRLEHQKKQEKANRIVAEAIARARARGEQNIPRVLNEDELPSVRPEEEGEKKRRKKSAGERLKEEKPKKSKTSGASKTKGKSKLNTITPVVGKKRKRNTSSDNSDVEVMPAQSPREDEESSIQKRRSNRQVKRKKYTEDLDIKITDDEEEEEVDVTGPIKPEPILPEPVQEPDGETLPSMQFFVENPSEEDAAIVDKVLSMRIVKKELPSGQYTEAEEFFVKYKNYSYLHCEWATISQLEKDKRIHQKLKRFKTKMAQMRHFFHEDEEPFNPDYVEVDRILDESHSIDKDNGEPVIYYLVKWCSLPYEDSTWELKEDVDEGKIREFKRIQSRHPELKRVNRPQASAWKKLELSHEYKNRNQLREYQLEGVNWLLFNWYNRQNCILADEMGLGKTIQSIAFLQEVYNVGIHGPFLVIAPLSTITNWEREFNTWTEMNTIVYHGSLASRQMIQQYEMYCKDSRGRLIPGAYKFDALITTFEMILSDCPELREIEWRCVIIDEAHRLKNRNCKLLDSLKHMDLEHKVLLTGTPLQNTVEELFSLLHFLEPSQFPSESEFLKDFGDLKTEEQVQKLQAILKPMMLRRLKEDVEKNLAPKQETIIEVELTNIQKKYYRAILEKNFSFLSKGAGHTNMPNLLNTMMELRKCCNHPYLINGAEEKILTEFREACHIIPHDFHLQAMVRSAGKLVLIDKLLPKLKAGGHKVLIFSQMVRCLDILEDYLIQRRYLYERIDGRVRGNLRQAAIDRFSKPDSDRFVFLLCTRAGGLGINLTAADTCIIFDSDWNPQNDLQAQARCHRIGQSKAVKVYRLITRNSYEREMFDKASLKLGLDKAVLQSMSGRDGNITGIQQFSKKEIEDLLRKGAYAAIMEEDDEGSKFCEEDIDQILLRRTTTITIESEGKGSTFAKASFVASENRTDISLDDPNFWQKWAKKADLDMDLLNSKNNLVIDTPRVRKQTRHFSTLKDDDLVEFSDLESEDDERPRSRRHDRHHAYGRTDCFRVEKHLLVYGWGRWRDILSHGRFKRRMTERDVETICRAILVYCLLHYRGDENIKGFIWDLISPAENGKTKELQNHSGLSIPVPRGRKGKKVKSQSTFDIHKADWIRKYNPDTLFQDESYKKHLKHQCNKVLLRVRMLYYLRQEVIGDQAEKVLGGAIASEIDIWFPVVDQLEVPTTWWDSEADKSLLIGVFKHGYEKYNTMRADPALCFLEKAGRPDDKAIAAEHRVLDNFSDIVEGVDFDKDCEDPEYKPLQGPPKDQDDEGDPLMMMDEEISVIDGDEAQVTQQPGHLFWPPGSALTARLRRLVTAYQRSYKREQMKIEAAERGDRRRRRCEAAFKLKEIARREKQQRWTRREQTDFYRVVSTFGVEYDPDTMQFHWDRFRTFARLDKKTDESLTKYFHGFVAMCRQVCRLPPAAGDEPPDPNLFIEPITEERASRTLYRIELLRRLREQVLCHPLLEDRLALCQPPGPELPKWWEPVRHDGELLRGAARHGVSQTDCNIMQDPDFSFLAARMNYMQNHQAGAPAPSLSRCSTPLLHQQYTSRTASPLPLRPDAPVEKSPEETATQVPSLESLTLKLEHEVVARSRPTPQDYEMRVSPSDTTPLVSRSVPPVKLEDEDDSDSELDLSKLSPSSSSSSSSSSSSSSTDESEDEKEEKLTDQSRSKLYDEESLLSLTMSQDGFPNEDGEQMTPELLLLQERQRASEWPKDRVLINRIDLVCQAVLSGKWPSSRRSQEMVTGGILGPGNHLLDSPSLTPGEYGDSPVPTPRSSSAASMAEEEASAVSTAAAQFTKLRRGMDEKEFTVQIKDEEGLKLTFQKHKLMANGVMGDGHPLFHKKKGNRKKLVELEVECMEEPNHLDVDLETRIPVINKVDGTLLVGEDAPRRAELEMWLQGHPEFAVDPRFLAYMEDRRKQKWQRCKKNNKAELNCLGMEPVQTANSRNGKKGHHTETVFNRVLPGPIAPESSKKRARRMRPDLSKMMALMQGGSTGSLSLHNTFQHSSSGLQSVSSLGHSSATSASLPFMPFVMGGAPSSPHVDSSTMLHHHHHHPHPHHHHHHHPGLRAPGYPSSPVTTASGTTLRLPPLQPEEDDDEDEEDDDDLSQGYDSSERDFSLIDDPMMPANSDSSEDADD

B1: recombinant full-length human BCL11A (natural protein, UniProt Q9H165 1-835, looked up)
chain: MSRRKQGKPQHLSKREFSPEPLEAILTDDEPDHGPLGAPEGDHDLLTCGQCQMNFPLGDILIFIEHKRKQCNGSLCLEKAVDKPPSPSPIEMKKASNPVEVGIQVTPEDDDCLSTSSRGICPKQEHIADKLLHWRGLSSPRSAHGALIPTPGMSAEYAPQGICKDEPSSYTCTTCKQPFTSAWFLLQHAQNTHGLRIYLESEHGSPLTPRVGIPSGLGAECPSQPPLHGIHIADNNPFNLLRIPGSVSREASGLAEGRFPPTPPLFSPPPRHHLDPHRIERLGAEEMALATHHPSAFDRVLRLNPMAMEPPAMDFSRRLRELAGNTSSPPLSPGRPSPMQRLLQPFQPGSKPPFLATPPLPPLQSAPPPSQPPVKSKSCEFCGKTFKFQSNLVVHRRSHTGEKPYKCNLCDHACTQASKLKRHMKTHMHKSSPMTVKSDDGLSTASSPEPGTSDLVGSASSALKSVVAKFKSENDPNLIPENGDEEEEEDDEEEEEEEEEEEEELTESERVDYGFGLSLEAARHHENSSRGAVVGVGDESRALPDVMQGMVLSSMQHFSEAFHQVLGEKHKRGHLAEAEGHRDTCDEDSVAGESDRIDDGTVNGRGCSPGESASGGLSKKLLLGSPSSLSPFSKRIKLEKEFDLPPAAMPNTENVYSQWLAGYAASRQLKDPFLSFGDSRQSPFASSSEHSSENGSLRFSTPPGELDGGISGRSGTGSGGSTPHISGPGPGRPSSKEGRRSDTCEYCGKVFKNCSNLTVHRRSHTGERPYKCELCNYACAQSSKLTRHMKTHGQVGKDVYKCEICKMPFSVYSTLEKHMKKWHSDRVLNNDIKTE
notes: BCL11A, human, full length; no cleavage of the tag is described; also called full-length BCL11A; source: Expi293F, transiently transfected, purified (StrepTactin XT 4-Flow resin)
On to B1, for which the Kd worked out at 870 nM.

For the origin of these results see paper PMC12170886, “CHD8 interacts with BCL11A to induce oncogenic transcription in triple negative breast cancer” (The EMBO Journal, 2025).
